Target: Saccharomyces cerevisiae Rad51 protein (S. cerevisiae) (UniProt P25454)
Experiment: SEC; 10 µM Rad51 and 20 µM Rad52 fragment incubated at room temperature for 1 h, or each protein alone; Superdex 200 10/300 GL in 20 mM Hepes-KOH pH 7.5, 0.1 M KCl, 0.5 mM EDTA, 10% glycerol, 2 mM 2-mercaptoethanol; peak fractions analysed by SDS-PAGE

Chain of UniProt P25454 (P25454 whole entry, the tested form may be a part): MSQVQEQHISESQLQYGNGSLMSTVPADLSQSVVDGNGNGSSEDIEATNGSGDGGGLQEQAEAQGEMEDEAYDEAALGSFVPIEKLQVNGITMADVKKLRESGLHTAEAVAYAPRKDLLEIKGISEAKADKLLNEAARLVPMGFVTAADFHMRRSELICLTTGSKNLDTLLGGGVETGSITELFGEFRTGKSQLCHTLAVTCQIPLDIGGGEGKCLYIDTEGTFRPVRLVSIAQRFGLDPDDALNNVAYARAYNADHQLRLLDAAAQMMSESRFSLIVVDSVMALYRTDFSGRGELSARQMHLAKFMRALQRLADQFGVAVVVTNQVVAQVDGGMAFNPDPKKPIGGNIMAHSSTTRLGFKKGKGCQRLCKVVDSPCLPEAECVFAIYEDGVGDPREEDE

With “Rad52^233–504 (C-terminal half of the Saccharomyces cerevisiae Rad52 protein) (domain or fragment)” the stoichiometry N was 1.
